Patent publication US20180364253A1 (published 2018)
Bridge positions count the residues as written; N and C are the ends. Square brackets hold non-standard residues; d marks the D form. Primed or numbered codes have the meaning given here. Ends that are not written are not given here. * marks the point of attachment. Biotin = O=C1N[C@H]2[C@H](CS[C@H]2CCCCC(=O)*)N1; Lys(N3) = [N-]=[N+]=NCCCC[C@H](N)C(=O)O; PEG3′ = PEGylated amino acid linker; Biotin′ = not defined here; Pra = C#CC[C@H](N)C(=O)O

Columns and labels:
[1] = target: T1, His6-PEG3-SQFEKFPSPPVPGGS (not fully specified (N-terminus); printed as His6-PEG3-SQFEKFPSPPVPGGS); experiment: point ELISA: ligand on NeutrAvidin plate, His-tagged epitope peptide, anti-His-AP detection
T1 construct: Chemically synthesized
T1 peptide: SQFEKFPSPPVPGGS
Procedure: (§1) Assay to determine orientation of macrocycle binding to IL-17F Epitope1. […] The plate was aspirated and then washed with TBS (5×) and Wash Buffer (0.05% (v/v) Tween-20 in PBS, 1×). Chemically synthesized His-tagged IL-17F epitopes were prepared at 2 μM in Wash Buffer and incubated in the designated microwells for 90 min at room temperature. Wash Buffer without epitope was added as a control. Microwells were aspirated and subsequently washed with Wash Buffer (10×). To detect the bound IL-17F epitopes, Alkaline Phosphatase (AP)-conjugated Anti-6X His tag® antibody [HIS-1] (ab49746, Abcam) was prepared at 1:10,000 dilution and added to the microwells for 1 h at room temperature. […] AttoPhos® AP Fluorescent Substrate System (S1000, Promega) was employed to develop the microwells. […] Data are shown after subtraction of the no-epitope background.

[2] = target: T2, His6-PEG3-FFQKPESSPPVPGGS (human, not fully specified (N-terminus); printed as His6-PEG3-FFQKPESSPPVPGGS); experiment: point ELISA with His-tagged epitope peptides scrambled at the N- or C-terminus
T2 construct: Chemically synthesized
T2 peptide: FFQKPESSPPVPGGS

[3] = target: T3, His6-PEG3-FFQKPESSPVSPGPG (not fully specified (N-terminus); printed as His6-PEG3-FFQKPESSPVSPGPG); experiment: point ELISA: ligand on NeutrAvidin plate, 2 µM His-tagged epitope peptide, anti-His-AP detection
T3 construct: Chemically synthesized
T3 peptide: FFQKPESSPVSPGPG
Procedure: as §1

[4] = target: T4, full-length His-tagged IL-17F protein (ab167911, Abcam) (human, UniProt Q96PD4 31-163); experiment: point ELISA: ligand on NeutrAvidin plate, His-tagged IL-17F against His-tagged IL-17A as reference
T4 construct: Bought protein, called 'full-length'; also called human IL-17F protein; recombinant human IL-17F protein; not shown: His tag of the bought protein
T4 chain: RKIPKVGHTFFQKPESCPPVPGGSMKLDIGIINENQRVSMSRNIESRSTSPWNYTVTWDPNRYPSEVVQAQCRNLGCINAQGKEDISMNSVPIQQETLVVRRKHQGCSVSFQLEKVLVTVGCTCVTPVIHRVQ

[5] = target: T4, full-length His-tagged IL-17F protein …; experiment: sandwich ELISA: biotinylated ligand on NeutrAvidin plate, His-tagged IL-17F titrated, anti-His-AP detection
[6] = target: T4, full-length His-tagged IL-17F protein …; experiment: surface-immobilized macrocycle contacted with IL-17F, IL-17A or no protein
[7] = target: T2, His6-PEG3-FFQKPESSPPVPGGS; experiment: point ELISA: ligand on NeutrAvidin plate, 2 µM His-tagged epitope peptide, anti-His-AP detection
Procedure: as §1

[8] = target: T4, full-length His-tagged IL-17F protein …; experiment: point ELISA: ligand on NeutrAvidin plate, 100 nM His-tagged IL-17F against His-tagged IL-17A as reference
Procedure: Point ELISA (IL-17F vs. IL-17A selectivity assay). […] The plate was aspirated and then washed with TBS (5×) and Wash Buffer (0.05% (v/v) Tween-20 in PBS, 1×). Full-length His-tagged IL-17F (ab167911, Abcam) and IL-17A (ab166882, Abcam) proteins were prepared at 100 nM and 10 nM in Wash Buffer and incubated in the designated microwells for 90 min at room temperature. Microwells were aspirated and subsequently washed with Wash Buffer (10×). To detect the bound IL-17F and IL-17A proteins, Alkaline Phosphatase (AP)-conjugated Anti-6X His tag® antibody [HIS-1] (ab49746, Abcam) was prepared at 1:10,000 dilution and added to the microwells for 1 h at room temperature. […] AttoPhos® AP Fluorescent Substrate System (S1000, Promega) was employed to develop the microwells.
For these assays, the full-length His-tagged IL-17F and IL-17A proteins were captured using the macrocyclic peptide ligands immobilized on a NeutrAvidin-coated plate.

[9] = target: T4, full-length His-tagged IL-17F protein …; experiment: method not named there (same number as the ELISA EC50)
[10] = target: T5, Plasmodium falciparum Histidine Rich Protein-2 (Pf.HRP-2) (Plasmodium falciparum); experiment: method and form of the target not stated
T5 chain: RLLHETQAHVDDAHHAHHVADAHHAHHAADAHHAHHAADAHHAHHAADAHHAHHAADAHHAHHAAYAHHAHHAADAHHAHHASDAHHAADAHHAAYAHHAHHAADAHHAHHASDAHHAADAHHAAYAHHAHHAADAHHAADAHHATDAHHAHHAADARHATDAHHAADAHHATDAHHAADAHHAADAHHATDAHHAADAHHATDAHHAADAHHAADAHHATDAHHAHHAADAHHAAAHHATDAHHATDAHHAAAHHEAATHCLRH

[11] = target: T5, Plasmodium falciparum Histidine Rich …; experiment: comparison of EC50 values
[12] = target: T4, full-length His-tagged IL-17F protein …; experiment: comparison of affinities for His-tagged IL-17F; reference the other biligands (PEG1, PEG2, PEG4, PEG5)
[13] = target: T4, full-length His-tagged IL-17F protein …; experiment: comparison of affinities for His-tagged IL-17F
[14] = target: T4, full-length His-tagged IL-17F protein …; experiment: binding to His-tagged IL-17F human recombinant protein; method not named there (ELISA implied)
[15] = target: T4, full-length His-tagged IL-17F protein …; experiment: fluorescence polarization in solution
[16] = target: T4, full-length His-tagged IL-17F protein …; experiment: point ELISA against recombinant human IL-17F and IL-17A
[17] = target: T4, full-length His-tagged IL-17F protein …; experiment: fluorescence polarization in solution: IL-17F titrated against the 5-FITC-tagged macrocycle

B1: Cy(RRATS)(SEQ ID NO:9)-PEG3-biotin (peptide)
peptide: [Pra]RRATS[Lys(N3)]-{PEG3′-Biotin′}
modifications: triazole N-C
notes: also called LF1; PEG3-biotin-modified Cy(RRATS)
B1: no binding (tested: 2 µM epitope) [1]; binds [2]; binds [3]. The “selectivity for IL-17F (against IL-17A)” value [4] was 2 ratio, the EC50 [5] was 66 nM and the “selectivity for IL-17F (against IL-17A)” value [6] was 10 ratio.

B2: Cy(RRAQS)(SEQ ID NO:10)-PEG3-biotin (peptide)
peptide: [Pra]RRAQS[Lys(N3)]-{PEG3′-Biotin′}
modifications: triazole N-C
notes: also called PEG3-biotin-modified Cy(RRAQS)
B2: no binding (tested: 2 µM epitope) [1]; binds [3]; binds [7]. The “selectivity for IL-17F (against IL-17A)” value [4] was 2 ratio and the EC50 [5] was 52 nM.

B3: Biotin-PEG3-Cy(RSYNK) (SEQ ID NO:28) (peptide)
peptide: RSYNK
modifications: not fully specified; cyclised by a triazole between flanking N-terminal Pra (L-propargylglycine) and C-terminal Az4 (L-azidolysine); Biotin-PEG3 label
notes: also called LF2; PEG3-biotin-modified Cy(RSYNK)
B3 was tested, and the “selectivity for IL-17F (against IL-17A)” value [8] was 4 ratio, the Kd [9] was 15 nM and the EC50 [5] was 15 nM.

B4: Cy(YKYYR) (SEQ ID NO:29) (peptide)
peptide: YKYYR
modifications: also: cyclic, mode of cyclisation not given here
notes: also called cyclic YKYYR
Work on B4 yielded an EC50 [10] of 220 nM.

B5: Biotin-PEG3-Cy(KKGWP) (SEQ ID NO:23) (peptide)
peptide: KKGWP
modifications: not fully specified; cyclised by a triazole between flanking N-terminal Pra (L-propargylglycine) and C-terminal Az4 (L-azidolysine); N-terminal Biotin-PEG3 label
notes: also called PEG3-biotin-modified Cy(KKGWP)
In the case of B5, the “selectivity for IL-17F (against IL-17A)” value [8] is reported as 4 ratio and the EC50 [5] is reported as 24 nM.

B6: cy(YKYYR)(SEQ ID NO:29)-linker-cy(GWNVDL) (SEQ ID NO:30) (peptide)
peptide 1: YKYYR
peptide 2: GWNVDL
modifications: not fully specified
notes: One covalent molecule; also called the resultant biligand
For B6, the EC50 [10] was 0.54 nM and the “fold improvement over the better of the two ligand components” value [11] was 100 fold.

B7: Biotin-PEG3-Cy(RSYNK)(SEQ ID NO:28)-PEG3-Cy(RRATS) (SEQ ID NO:9) (peptide)
peptide 1: {Biotin-PEG3′}-[Pra]RSYNK
peptide 2: [Pra]RRATS[Lys(N3)]
modifications: not fully specified (C-terminus); also: triazole to a chain's N/C-terminus, triazole to a chain's N/C-terminus
notes: One covalent molecule: the two macrocycles are joined by a single PEGylated amino acid (PEG3); also called Bi-LF; Cy(RSYNK)-PEG3-Cy(RRATS)
With B7 the “times stronger than the other biligands” value [12] was ≥ 16 fold, the “fold improvement in affinity relative to the individual PCC macrocyclic ligands” value [13] was > 100 fold and the Kd [14] was 0.246 nM. The Kd [15] was 0.252 nM and the “selectivity for IL-17F (against IL-17A)” value [16] was 4 ratio.

B8: fluorescein 5-isothiocyanate (5-FITC)-tagged LF1 (peptide)
peptide: [Pra]RRATS[Lys(N3)]
modifications: triazole N-C; numbers in words are those of the source; also: 5-FITC tag, position not given here
notes: Form of LF1 used in fluorescence polarization; also called LF1 (5-FITC-tagged)
Binder B8 has a Kd [17] of 50 nM.

B9: linked biligand of two Cy(YKYYR) (SEQ ID NO:29) PCCs with about a 1.5 nm long linker (peptide)
peptide: YKYYR
modifications: also: cyclic peptide (Cy), closure not given here, dimer: two macrocycles joined by a linker of about 1.5 nm
notes: also called the resultant linked biligand
B9 gave an EC50 [10] of 20.8 nM.

B10: cyclic PCC with variable sequence GWNVDL (SEQ ID NO:30) (peptide)
peptide: GWNVDL
modifications: also: cyclic peptide, closure not given here
notes: also called cy(GWNVDL)
For B10, the EC50 [10] was 50 nM.

B11: fluorescein 5-isothiocyanate (5-FITC)-tagged LF2 (peptide)
peptide: [Pra]RSYNK[Lys(N3)]
modifications: triazole N-C; numbers in words are those of the source; also: 5-FITC tag, position not given here
notes: Form of LF2 used in fluorescence polarization; also called LF2 (5-FITC-tagged)
Binder B11 has a Kd [17] of 28 nM.
